Sequences and labels used below:
T1: FcgRIIa R (human, UniProt P12318)
T1 chain: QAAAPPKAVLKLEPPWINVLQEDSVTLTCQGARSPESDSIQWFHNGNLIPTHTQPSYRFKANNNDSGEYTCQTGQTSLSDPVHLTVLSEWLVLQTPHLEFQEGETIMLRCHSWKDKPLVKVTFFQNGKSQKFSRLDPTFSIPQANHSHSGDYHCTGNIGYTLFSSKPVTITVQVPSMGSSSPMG

T2: FcgRIa (human, UniProt P12314)
T2 chain: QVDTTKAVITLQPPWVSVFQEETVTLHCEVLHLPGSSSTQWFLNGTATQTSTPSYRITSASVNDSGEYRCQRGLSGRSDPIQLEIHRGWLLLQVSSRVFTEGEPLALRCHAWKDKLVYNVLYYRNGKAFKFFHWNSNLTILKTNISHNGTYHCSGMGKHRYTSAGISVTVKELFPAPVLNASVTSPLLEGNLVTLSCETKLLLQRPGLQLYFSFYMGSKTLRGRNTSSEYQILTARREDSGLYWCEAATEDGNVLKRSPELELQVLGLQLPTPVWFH

T3: FcgRIIa H (human, UniProt P12318)
T3 chain: T1 chain with R134H

T4: FcgRIIb (human, UniProt P31994)
T4 chain: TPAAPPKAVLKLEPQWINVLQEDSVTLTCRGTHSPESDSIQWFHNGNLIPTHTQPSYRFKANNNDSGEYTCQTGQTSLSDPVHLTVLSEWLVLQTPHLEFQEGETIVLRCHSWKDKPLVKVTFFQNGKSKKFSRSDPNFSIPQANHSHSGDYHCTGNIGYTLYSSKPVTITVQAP

B1: H240-Kn221/H240-Hl068/L73-k0 (antibody)
chain 1: QDQLVQSGAEVKKPGASVKVSCKASGFNIKDTYIQWVRQAPGQGLEWMGRIDPLRKQTKYREKFEGRVTITADTSTNTAYMELSSLRSEDTAVYYCVRSGREFDYWGQGTLVTVSSASTKGPSVFPLAPSSKSTSGGTAALGCLVKDYFPEPVTVSWNSGALTSGVHTFPAVLQSSGLYSLSSVVTVPSSSLGTQTYICNVNHKPSNTKVDKKVEPKSCDKTHTCPPCPAPETYWGPMVFLFPPKPKDTLMISRTPEVTCVVVDVSDEDPEVKFNWYVDGVEVHNAKTKPREEQYNATYRVVSVLTVLHQDWLNGKEYKCKVSNKDLPAPIEKTISKAKGQPREPQVCTLPPSRDELTKNQVSLWCLVKGFYPSDIAVEWESNGQPENNYKTTPPVLDSDGSFFLYSKLTVDKSRWQQGNVFSCSVMHEALHNHYTQKSLSLSP
chain 2: QDQLVQSGAEVKKPGASVKVSCKASGFNIKDTYIQWVRQAPGQGLEWMGRIDPLRKQTKYREKFEGRVTITADTSTNTAYMELSSLRSEDTAVYYCVRSGREFDYWGQGTLVTVSSASTKGPSVFPLAPSSKSTSGGTAALGCLVKDYFPEPVTVSWNSGALTSGVHTFPAVLQSSGLYSLSSVVTVPSSSLGTQTYICNVNHKPSNTKVDKKVEPKSCDKTHTCPPCPAPELLGGPSVFLFPPKPKDTLMISRTPEVTCVVVDVSHEEPEVKFNWYVDGVEVHNAKTKPREEQYNSTYRVVSVLTVLHQDWLNGKEYKCKVSNDALPKPIEETISKAKGQPREPQVYTLPPSRCELTKNQVSLSCAVKGFYPSDIAVEWESNGQPENNYKTTPPVLDSDGSFFLVSKLTVDKSRWQQGNVFSCSVMHEALHNHYTQKSLSLSP
chain 3: DIQMTQSPSSLSASVGDRVTITCRASQDIHKYIAWYQQKPGQAPRLLIQYTSTLQPGVPSRFSGSGSGTDYTFTISSLQPEDIATYYCLQYEQLRTFGGGTKVEIKRTVAAPSVFIFPPSDEQLKSGTASVVCLLNNFYPREAKVQWKVDNALQSGNSQESVTEQDSKDSTYSLSSTLTLSKADYEKHKVYACEVTHQGLSSPVTKSFNRGEC
B2: H240-Kn215/H240-Hl076/L73-k0 (antibody)
chain 1: B1 chain 1 with T233H, Y234Q, D269E, D326A
chain 2: B1 chain 2 with K329M
chain 3: B1 chain 3
B3: H240-Kn198/H240-Hl076/L73-k0 (antibody)
chain 1: B1 chain 1 with T233L, Y234Q, D269E, D326A
chain 2: B1 chain 2 with K329M
chain 3: B1 chain 3
B4: H240-Kn204/H240-Hl211/L73-k0 (antibody)
chain 1: B1 chain 1 with T233Y, Y234L, W235G, M238S, D267H, K289Y, Y295W, A297S, D326A
chain 2: B1 chain 2 with S238D, E269D, D325K, K329M, E333V
chain 3: B1 chain 3
B5: H240-Kn213/H240-Hl076/L73-k0 (antibody)
chain 1: B1 chain 1 with T233A, Y234Q, D269E, D326A
chain 2: B1 chain 2 with K329M
chain 3: B1 chain 3
B6: H240-Kn218/H240-Hl068/L73-k0 (antibody)
chain 1: B1 chain 1 with T233Q
chain 2: B1 chain 2
chain 3: B1 chain 3
B7: H240-Kn207/H240-Hl076/L73-k0 (antibody)
chain 1: B1 chain 1 with T233V, Y234Q, D269E, D326A
chain 2: B1 chain 2 with K329M
chain 3: B1 chain 3
B8: H240-Kn189/H240-Hl068/L73-k0 (antibody)
chain 1: B1 chain 1 with T233S
chain 2: B1 chain 2
chain 3: B1 chain 3
B9: H240-Kn222/H240-Hl068/L73-k0 (antibody)
chain 1: B1 chain 1 with T233A
chain 2: B1 chain 2
chain 3: B1 chain 3
B10: H240-Kn224/H240-Hl068/L73-k0 (antibody)
chain 1: B1 chain 1 with T233H
chain 2: B1 chain 2
chain 3: B1 chain 3
B11: H240-Kn205/H240-Hl212/L73-k0 (antibody)
chain 1: B1 chain 1 with T233Y, Y234L, W235G, M238S, D267H, Y295W, A297C, D326A
chain 2: B1 chain 2 with S238D, E269D, D325K, K329A, E333V
chain 3: B1 chain 3
B12: H240-Kn234/H240-Hl068/L73-k0 (antibody)
chain 1: B1 chain 1 with T233D, M238I
chain 2: B1 chain 2
chain 3: B1 chain 3
B13: H240-Kn227/H240-Hl214/L73-k0 (antibody)
chain 1: B1 chain 1 with T233E, Y234Q, M238I, D269E, D326A
chain 2: B1 chain 2 with K329F
chain 3: B1 chain 3
B14: H240-Kn202/H240-Hl214/L73-k0 (antibody)
chain 1: B1 chain 1 with T233E, Y234Q, D269E, D326A
chain 2: B1 chain 2 with K329F
chain 3: B1 chain 3

Residue numbers refer to the chain shown, from its start.

A word on the Kd: it is a measure of binding affinity in units of concentration.

T6 sequence (P08637 17-208 F176V): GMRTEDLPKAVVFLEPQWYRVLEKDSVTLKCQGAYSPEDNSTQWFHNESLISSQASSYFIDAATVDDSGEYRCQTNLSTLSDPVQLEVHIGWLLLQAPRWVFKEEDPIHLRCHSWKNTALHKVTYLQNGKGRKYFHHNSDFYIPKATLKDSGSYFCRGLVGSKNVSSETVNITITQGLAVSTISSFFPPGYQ

The target in the first assay is T1, FcgRIIa R. The assay can be described thus: SPR.
In turn, B1 returned a Kd of 29 nM. This lies in the double-digit nanomolar range.
B2: binding was characterised by a dissociation constant (Kd) of 1000 nM.
B3 showed a Kd of 630 nM.
B4 registered a Kd of 640 nM.
In the case of B5, the equilibrium dissociation constant (Kd) is 820 nM.
The same measure, in the same setting: as for B6, the figure is 37 nM; as for B7, 680 nM; as for B8, 23 nM.
B9 gave a Kd of 28 nM.
Same read-out and setting: as for B10, the figure is 54 nM; as for B11, 610 nM.

In another assay the target is T2, FcgRIa. Put plainly: SPR.
The molecule B12 gave a Kd of 0.19 nM. This lies in the sub-nanomolar range.
On the same count and under the same terms, as for B13, the figure is 0.13 nM.
In turn, B14 gave a Kd of 0.09 nM.

Another assay has as its target T3, FcgRIIa H. The assay can be described thus: SPR. In general terms: SPR reads the build-up and loss of mass on a sensor chip optically.
As to B1, the Kd is 44 nM.
Still for that read-out and setting: as for B2, the figure is 250 nM.
Same read-out and setting: as for B3, the figure is 140 nM; as for B4, 760 nM.
Same read-out and setting: as for B5, the figure is 210 nM.
B6 displayed a Kd of 33 nM.
In the case of B7, the Kd amounted to 170 nM.
The same measure, in the same setting: as for B8, the figure is 48 nM; as for B9, 49 nM; as for B10, 57 nM.
Still for that read-out and setting: as for B11, the figure is 370 nM.

The target in the next assay is T2, FcgRIa. The assay can be described thus: SPR. The source holds these as a separate data set.
As for B1, the Kd was found to be 0.18 nM.
Still for that read-out and setting: as for B2, the figure is 0.089 nM; as for B3, 0.083 nM.
The same measure, in the same setting: the same measure for B4: 0.038 nM.
On the same count and under the same terms, the same measure for B5: 0.082 nM; for B6: 0.14 nM.
B7 showed a Kd of 0.085 nM.
The same measure, in the same setting: the same measure for B8: 0.16 nM.
Molecule B9 yielded a Kd of 0.14 nM.
Consider B10, for which the Kd was found to be 0.14 nM.
B11 yielded a Kd of 0.054 nM.

In another assay the target is T5, FcgRIIIa F (human, UniProt P08637). Put plainly: SPR.
T5 sequence (P08637 17-208): as the sequence (P08637 17-208 F176V) above, with V160F counted along it
B1 returned a Kd of 2.7 nM. That is a single-digit nanomolar value.
B2: the Kd turned out to be 2.6 nM.
Molecule B3 registered a Kd of 1.5 nM.
Still for that read-out and setting: the same measure for B4: 14 nM; for B5: 2.6 nM.
On the same count and under the same terms, as for B6, the figure is 3.5 nM; as for B7, 1.9 nM.
The molecule B8 gave a Kd of 3.2 nM.
The same measure, in the same setting: the same measure for B9: 3.3 nM; for B10: 4 nM.
B11 had a Kd of 12 nM. Compared with the last molecule, the Kd is about 3-fold higher.

In the next assay the target is T3, FcgRIIa H. The assay can be described thus: SPR. The source holds these as a separate data set.
The molecule B12 had a Kd of 65 nM.
On to B13, for which binding was characterised by a dissociation constant (Kd) of 290 nM.
For the molecule B14, the Kd worked out at 440 nM. Compared with the last molecule, the Kd is about 1.5-fold higher.

The next assay deals with T1, FcgRIIa R. Put plainly: SPR. The source holds these as a separate data set.
With B12, binding was characterised by a dissociation constant (Kd) of 21 nM.
On the same count and under the same terms, as for B13, the figure is 370 nM; as for B14, 830 nM.

The target in a further assay is T5, FcgRIIIa F. The assay can be described thus: SPR. The source holds these as a separate data set.
With B12, the Kd amounted to 2.3 nM. This lies in the single-digit nanomolar range.
Still for that read-out and setting: the same measure for B13: 1.8 nM.
On the same count and under the same terms, as for B14, the figure is 2.6 nM.

The target in another assay is T4, FcgRIIb. The assay can be described thus: SPR.
B1 registered a Kd of 220 nM.
In turn, B2 came in with a Kd of 6100 nM.
The molecule B3 showed a Kd of 6300 nM.
Same read-out and setting: as for B4, the figure is 1300 nM; as for B5, 6100 nM; as for B6, 220 nM.
Same read-out and setting: the same measure for B7: 5200 nM.
Regarding B8, the Kd was determined as 150 nM.
In the case of B9, binding was characterised by a dissociation constant (Kd) of 190 nM.
The same measure, in the same setting: the same measure for B10: 360 nM; for B11: 1600 nM.

A further assay has as its target T6, FcgRIIIa V (human, UniProt P08637). Put plainly: SPR.
On to B12, for which the Kd was 0.68 nM.
On the same count and under the same terms, the same measure for B13: 0.8 nM; for B14: 0.95 nM.

The target of the next assay is T6, FcgRIIIa V. The assay can be described thus: SPR. This is another data set of the same source.
As for B1, the Kd turned out to be 0.47 nM.
Still for that read-out and setting: as for B2, the figure is 0.68 nM; as for B3, 0.54 nM; as for B4, 7.4 nM.
Still for that read-out and setting: the same measure for B5: 0.73 nM.
Take B6: the Kd worked out at 0.5 nM.
On the same count and under the same terms, the same measure for B7: 0.49 nM.
Still for that read-out and setting: the same measure for B8: 0.52 nM.
In turn, B9 had a Kd of 0.54 nM.
B10 gave a Kd of 0.53 nM. The Kd values of the last two molecules are within 1.5-fold of each other.
B11 yielded a Kd of 4.2 nM.

In another assay the target is T4, FcgRIIb. Put plainly: SPR. This is another data set of the same source.
With B12, binding was characterised by a dissociation constant (Kd) of 140 nM. That is a sub-micromolar value.
Same read-out and setting: as for B13, the figure is 2800 nM; as for B14, 6100 nM.

(Values after patent US10766960 (dated 2020).)
